Laboratory results taken from paper PMC12511625.

Key:
[1] = target: S. venezuelae ParB (wild type, recombinant, cleaved from GST) (S. venezuelae); settings: scale: μmol of phosphate released by 1 μmol of ParB in one hour
[2] = target: S. venezuelae ParB_(SMC-) variant (TDR 132-134 to AAT, D164R) (S. venezuelae); settings: scale: μmol of phosphate released by 1 μmol of ParB in one hour

With “FLAG-SMC of S. venezuelae (natural protein)” the CTP hydrolysis (phosphate released) by ParB (2 μM) with parS-containing plasmid DNA and FLAG-SMC (0.02 μM, 1:100 molar ratio); without FLAG-SMC 65.1 +/− 2.9 [1] was 35.2 and the CTP hydrolysis (phosphate released) by ParB (SMC-) (2 μM) with parS-containing plasmid DNA and FLAG-SMC (1:100 molar ratio); without FLAG-SMC 46.7 +/− 3.9; said to be similar with and without SMC [2] was 39.
